Results on two molecules are retold here after US20250376667A1.

Series [1] has as its system control peptide comprising PCL1 (PCL1 Pep).
In series [2] the test system is KL958 (C521S C370S)-PCL1-HSA.

Sequence of control peptide comprising PCL1 (PCL1 Pep) (chain, as listed by the source): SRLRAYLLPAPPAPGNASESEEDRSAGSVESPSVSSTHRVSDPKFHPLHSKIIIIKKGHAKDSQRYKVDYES

Take kallikrein 2 (KLK2): the “protease cleavage of the peptide in vitro” value in series [1] is “The ability of two proteases, kallikrein 2 (KLK2) and matrix metalloproteinase 7 (MMP7), to cleave the protease cleavable linker PCL1 was confirmed using a control peptide comprising PCL1 (PCL1 Pep)”.

B1: matrix metalloproteinase 7 (MMP7) (enzyme, UniProt P09237 95-267, looked up, species assumed)
Matrilysin: YSLFPNSPKWTSKVVTYRIVSYTRDLPHITVDRLVSKALNMWGKEIPLHFRKVVWGTADIMIGFARGAHGDSYPFDGPGNTLAHAFAPGTGLGGDAHFDEDERWTDGSSLGINFLYAATHELGHSLGMGHSSDPNAVMYPTYGNGDPQNFKLSQDDIKGIQKLYGKRSNSRKK
For the molecule B1, the “protease cleavage of the peptide in vitro” value in series [1] was “The ability of two proteases, kallikrein 2 (KLK2) and matrix metalloproteinase 7 (MMP7), to cleave the protease cleavable linker PCL1 was confirmed using a control peptide comprising PCL1 (PCL1 Pep)”. The “protease cleavage in reaction buffer, immunoblot with anti-KL antibodies” value in the series with KL958 (C521S)-PCL1-HSA is reported as “PCL1-containing KL polypeptides displayed cleavage of the linker, resulting in a shorter KL polypeptide in the presence of MMP7”; in series [2] it was “PCL1-containing KL polypeptides displayed cleavage of the linker, resulting in a shorter KL polypeptide in the presence of MMP7”.
